Assays:
[1] = system: adult male fecal microbiome; test: Flow cytometry binding to adult fecal microbiome; parameters: species or system human; details: adult fecal sample, 15 μg/mL Strep-tagged-hIntL-1, 10 mM CaCl2
Protocol: Human fecal samples provide a non-invasive proxy of the intestinal microbiome of a patient. The inventors have isolated the intestinal microbiome from human fecal samples and analyzed it for hIntL-1 binding. The isolated microbiome was fixed using an aqueous solution of 1% formaldehyde. Cells were stained as described elsewhere, using either a solution including calcium ions (100 mM) or one containing the calcium ion chelator EDTA. Microbes were exposed to 20 mM HEPES (pH 7.2), 150 mM NaCl, 10 mM CaCl2, 15 μg/mL Strep-tagged-hIntL-1, 0.1% bovine serum albumin (BSA), 0.05% tween-20, 2 μg/mL StrepMAB Classic conjugated to Oyster 645 (IBA Lifesciences, cat. no.: 2-1555-050). To test for a role for calcium ions, cells were exposed to a solution of 20 mM HEPES (pH 7.2), 150 mM NaCl, 1 mM EDTA, 15 μg/mL Strep-tagged-hIntL-1, 0.1% bovine serum albumin (BSA), 0.05% tween-20, 2 μg/mL StrepMAB Classic Conjugated to Oyster 645 (IBA Lifesciences, cat. no.: 2-1555-050). Cells are analyzed consecutively on a BD LSRII flow cytometer using identical instrument setting. Unstained cells, cells stained in the presence of calcium ions (10 mM), and cells stained in the presence of EDTA were directly compared. […]

[2] = hIntL-1 carbohydrate binding ELISA-like assay

B1: hIntL-1: human lectin intelectin-1, accession no. Q8WWA0; recombinant disulfide-linked trimer from HEK 293T cells, used also N-terminally Strep-tagged (Strep-hIntL-1) (protein, listed as Homo sapiens)
chain: MNQLSFLLFLIATTRGWSTDEANTYFKEWTCSSSPSLPRSCKEIKDECPSAFDGLYFLRTENGVIYQTFCDMTSGGGGWTLVASVHENDMRGKCTVGDRWSSQQGSKAVYPEGDGNWANYNTFGSAEAATSDDYKNPGYYDIQAKDLGIWHVPNKSPMQHWRNSSLLRYRTDTGFLQTLGHNLFGIYQKYPVKYGEGKCWTDNGPVIPVVYDFGDAQKTASYYSPYGQREFTAGFVQFRVFNNERAANALCAGMRVTGCNTEHHCIGGGGYFPEASPQQCGDFSGFDWSGYGTHVGYSSSREITEAAVLLFYR
- fraction of bacteria of the human microbiome bound by hIntL-1 [1]: approximately 25%
- binding to β-Galf on addition of EDTA ([2]; hIntL-1 conditioned HEK culture media, addition of 25 mM EDTA): completely abolished binding
- Kd ([2]; trimeric hIntL-1, ELISA-like assay, 10 mM CaCl2, read-out: avidity (apparent Kd) for immobilized β-Galf): 85 ± 14 nM
